The values below are quoted from earlier work in publication PMC3740200 (Dalton transactions (Cambridge, England : 2003), 2012).

Read-outs that look alike come from different tables or passages of the source.

The conditions of series [1]: ref [16].
The conditions of series [2]: 4 °C, ref [16].
For series [3] the following is noted: ref [2].
The conditions of series [4]: ref [1]; for turnover number: 100 mM phosphate buffer pH 7, 25 °C.

B1: WT DaCld: wild-type chlorite dismutase from Dechloromonas aromatica, heme-binding pentameric enzyme (protein, UniProt Q47CX0 32-282, looked up)
Chlorite dismutase: QQAMQPMQSMKIERGTILTQPGVFGVFTMFKLRPDWNKVPVAERKGAAEEVKKLIEKHKDNVLVDLYLTRGLETNSDFFFRINAYDLAKAQTFMREFRSTTVGKNADVFETLVGVTKPLNYISKDKSPGLNAGLSSATYSGPAPRYVIVIPVKKNAEWWNMSPEERLKEMEVHTTPTLAYLVNVKRKLYHSTGLDDTDFITYFETDDLTAFNNLMLSLAQVKENKFHVRWGSPTTLGTIHSPEDVIKALAD
With B1, the “pKa of alkaline transition (5cHS to 6cLS)” value in series [1] is reported as 8.9. For the same molecule, the results for the kcat in series [2] (acidic form) and in series [2] (alkaline form) were 120 ± 5 × 10^2 s^-1 and 460 s⁻¹, respectively. For the same molecule, the “first order kobs of second step (PAA-independent)” value in series [3] (pH 6.0) was 0.3 s⁻¹. Also, the “second order rate constant k, formation of Compound I with PAA” value in series [3] (pH 6) was 190000 M⁻¹ s⁻¹. Also, the “second order rate constant k, reaction with PAA” value in series [3] (pH 8) was 1.3e+06 M⁻¹ s⁻¹. The values for the turnover number in series [4] and in series [4] (listed as WT) were 1.7×10^4 ClO2^− ions/heme and 17000 ClO2^− ions/heme, respectively. Also, the “turnovers before irreversibly inactivating” value in series [4] is given as ~ 20,000 turnovers.
